Measured values: PMC6327041 (2019)
Where no end group is shown, it is not given here. [ ]: non-standard residue; d: D form. pT = C[C@@H](OP(=O)(O)O)[C@H](N)C(=O)O

B1: GST-PHD1 (S287-K347) of KDM5A (domain or fragment)
chain: SVNFVDLYVCMFCGRGNNEDKLLLCDGCDDSYHTFCLIPPLPDVPKGDWRCPKCVAEECSK

Legend:
[1] = target: B1; experiment: FP
[2] = target: B1; experiment: FP; H3T6ph
[3] = target: B1; experiment: FP; H3R2me2s (symmetric dimethyl)
[4] = target: B1; experiment: FP; H3R2me2a (asymmetric dimethyl)
[5] = target: H3 10mer peptide mutated at R2 (UniProt P68431 2-11); experiment: FP; H3R2A
[6] = target: B1; experiment: FP; H3R8me2s (symmetric dimethyl)
[7] = target: B1; experiment: FP; H3R8me2a (asymmetric dimethyl)

In the case of ARTKQTARKS (acetyl-lysine at 9 (K9ac)) [H3K9ac 10mer peptide], the Kd [1] is reported as 1010 nM.

ARTKQ[pT]ARKS [H3 10mer peptide phosphorylated at T6] gave a Kd [2] of 72000 nM.

For ARTKQTARKS [unmodified H3 10mer effector peptide (H3 Ala1-Ser10)], the Kd [1] was 996 nM.

For ARTKQTARKS (also: methylated Arg2, degree of methylation not given here) [H3 10mer peptide methylated at R2], the Kd [3] was 5310 nM and the Kd [4] was 5410 nM.

B1 gave a Kd [5] of 205000 nM.

ARTKQTARKS (trimethyl-lysine at 9 (K9me3)) [H3K9me3 10mer peptide] was tested, and the Kd [1] was 740 nM.

For ARTKQTARKS (also: methylated Arg8, degree of methylation not given here) [H3 10mer peptide methylated at R8], the Kd [6] was 2010 nM and the Kd [7] was 1840 nM.
